Tested on: MutY (Escherichia coli)
Conditions: A.G to C-G correction by complementation of mutS mutY extract; fraction V

A.G mismatch heteroduplex showed an activity of 480000 units/mg.
